clusters/µm of dendrite after two hour incubation data for two substances are collected here from patent publication US20070099248A1.

The target of this experiment is biotinylated AP-neuroligin-1 on rat hippocampal neurons (mouse neuroligin-1 with acceptor peptide at the N-terminus, biotinylated with biotin ligase) (mouse) (UniProt Q99K10). In words: cell-based or functional assay.
Sequence of biotinylated AP-neuroligin-1 on rat hippocampal neurons (mouse neuroligin-1 with acceptor peptide at the N-terminus, biotinylated with biotin ligase) (mouse) (Q99K10 46-843, form in doubt): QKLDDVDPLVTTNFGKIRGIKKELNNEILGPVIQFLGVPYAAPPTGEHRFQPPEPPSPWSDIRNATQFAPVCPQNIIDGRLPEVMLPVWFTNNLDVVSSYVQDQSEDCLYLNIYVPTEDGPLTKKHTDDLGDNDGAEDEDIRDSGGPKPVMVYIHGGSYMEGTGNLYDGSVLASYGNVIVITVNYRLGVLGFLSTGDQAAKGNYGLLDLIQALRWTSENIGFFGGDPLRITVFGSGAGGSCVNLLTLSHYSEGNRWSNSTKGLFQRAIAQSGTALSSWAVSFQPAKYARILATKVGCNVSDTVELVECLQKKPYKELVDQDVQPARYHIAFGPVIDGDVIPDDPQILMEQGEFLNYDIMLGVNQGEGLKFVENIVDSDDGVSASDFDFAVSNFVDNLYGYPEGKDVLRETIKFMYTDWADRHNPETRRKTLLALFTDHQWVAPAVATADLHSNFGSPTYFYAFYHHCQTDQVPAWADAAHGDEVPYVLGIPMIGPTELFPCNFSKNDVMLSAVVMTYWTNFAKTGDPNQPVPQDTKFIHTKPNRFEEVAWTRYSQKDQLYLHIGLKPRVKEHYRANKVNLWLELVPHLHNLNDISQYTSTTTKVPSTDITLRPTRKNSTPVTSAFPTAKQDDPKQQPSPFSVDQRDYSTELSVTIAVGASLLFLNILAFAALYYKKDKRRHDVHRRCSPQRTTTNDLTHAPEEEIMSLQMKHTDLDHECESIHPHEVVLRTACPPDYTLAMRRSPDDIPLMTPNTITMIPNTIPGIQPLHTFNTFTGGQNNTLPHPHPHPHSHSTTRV

As for “Alexa Fluor 568-conjugated wild-type streptavidin (Molecular Probes) (from UniProt P22629 37-163)”, the clusters/µm of dendrite after two hour incubation was 0.266 clusters/µm.

“monovalent streptavidin A1D3 (one Alive subunit with His6 tag, three Dead subunits), Alexa Fluor 568-conjugated (designed binder)” registered a clusters/µm of dendrite after two hour incubation of 0.087 clusters/µm.
